Data taken from patent publication US20100055034A1 (DOMPE PHA MA S P A, published 2010).
Substitutions are numbered along the chain they refer to. Numbers in names are those of the source. One block for each binder: values may come before it.

Legend:
[1] = target: T1, human folate receptor alpha as expressed on cells (human, UniProt P15328 25-234); experiment: cell ELISA on fixed IGROV1 cells, F(ab')2; KD = concentration at half of plateau signal
T1 construct: GPI-anchored on the cell surface; Natural expression on OVCAR3 and IGROV1 ovarian carcinoma cells, transfected into A431 cells (A431-FR); also called alpha FR; FR-alpha
Method: (§1) 4×10⁴ cells (human ovarian carcinoma cell lines OVCAR3 (ATCC) and IGROVI (a gift from Dr J. Bénard, Institut Gustave Roussy, Villejuif, France), and A431-FR⁽¹⁷⁾ cells which are human epidermoid carcinoma cells transfected with folate receptor alpha,) were seeded in each well of a 96 wells format plate, and grown until a confluent monolayer was obtained. Cells were fixed, for 5 minutes, at room temperature with 0.1% glutaraldehyde in PBS. Plates were washed twice with PBS, then once (5 minutes) with 0.1M glycine in PBS+0.02% NaN₃, successively five times with PBS and finely with PBS containing 1% BSA and 0.02% NaN₃.
(§2) An anti-human IgG (Fab specific, Sigma) peroxidase conjugated diluted 1:1000 in PBS+0.03% BSA was used to reveal antibodies fragment binding.
(§3) Since no signal could be detected on the A431 mock cells which are cells transfected with the empty vector, as compared to the cells transfected with FR-alpha, both AFRA and C4 antibodies were judged to be specific for the alpha folate receptor. […] Table I reports ELISA determination of KD values of F(ab′)₂ of C4 and AFRA antibodies fragments. The KD was determined as to be the concentration at which half of the ELISA plateau signal is obtained.

[2] = target: T1, human folate receptor alpha as …; experiment: cell ELISA on fixed OVCAR3 cells, F(ab')2; KD = concentration at half of plateau signal
Method: as §1, §2, §3

[3] = target: T1, human folate receptor alpha as …; experiment: cell ELISA on fixed A431-FR cells, F(ab')2; KD = concentration at half of plateau signal
Method: as §1, §2, §3

[4] = target: T2, recombinant soluble human alpha folate receptor with His6 purification tag (human, UniProt P15328 25-232); experiment: SPR (BIAcore), KD of AFRA Fab against KD of C4 Fab
T2 construct: Expressed in CHO-K1 cells and purified from the supernatant; also called soluble alpha FR; recombinant FR
Method: (§4) FIG. 3 (BIAcore binding): Determination of antibody fragments binding parameters on alpha folate receptor. For this several concentrations of Fab monomer (from 3 to 200 nM) were flowed in the sensorchip cell previously coated with the recombinant receptor and binding was registered for 30 minutes. After this time period washing was monitored for another twenty minutes.
(§5) The target protein was coated on […] BIAcore sensorchip and several concentrations of both antibody fragments were used to determine the binding kinetics. In particular, recombinant FR was covalently bound to a CM5 sensor chip using the amine coupling kit (Pharmacia) with an antigen concentration of 0.6 μg/ml in 10 mM sodium acetate, pH 4.8 yielding a surface of 280 RU. Residual activated groups were blocked by injection of […] ethanolamine (1.0 M pH 8.5). […] Evaluation was performed for at least 30 minutes. Subsequently, detachment of residual antibody bound to the sensor chip was performed with 100 mM Glycine Buffer pH 2.7.

[5] = target: T2, recombinant soluble human alpha folate …; experiment: SPR (BIAcore), recombinant FR amine-coupled to CM5 chip, Fab monomer 3.125-200 nM in flow
Method: as §4, §5

T2 sequence (P15328 other isoform, or with tags, fused parts or gaps limits assumed): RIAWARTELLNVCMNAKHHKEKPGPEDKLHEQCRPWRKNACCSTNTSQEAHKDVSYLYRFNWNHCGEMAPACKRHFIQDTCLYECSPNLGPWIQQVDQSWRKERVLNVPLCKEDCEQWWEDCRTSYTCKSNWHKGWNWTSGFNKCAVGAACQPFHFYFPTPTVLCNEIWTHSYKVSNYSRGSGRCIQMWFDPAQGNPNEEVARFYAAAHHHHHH
T1 sequence (P15328 25-234): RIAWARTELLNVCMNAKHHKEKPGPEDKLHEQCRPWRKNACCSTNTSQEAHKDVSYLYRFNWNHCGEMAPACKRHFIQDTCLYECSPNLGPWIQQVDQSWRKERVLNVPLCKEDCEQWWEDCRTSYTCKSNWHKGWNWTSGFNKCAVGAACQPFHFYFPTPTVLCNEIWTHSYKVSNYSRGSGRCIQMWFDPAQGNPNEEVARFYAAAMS

B1: C4 F(ab')2 natural dimer (other)
light: QSALTQPASVSGSPGQSITISCTGTSSDVGSYNLVSWYQQHPGKAPKLMIYEGSKRPSGVSNRFSGSKSGNAASLTISGLQAEDEADYYCQSYDSSLSVVFGGGTKLTVLGQPKAAPSVTLFPPSSEELQANKATLVCLISDFYPGAVTVAWKADSSPVKAGVETTTPSKQSNNKYAASSYLSLTPEQWKSHRGYSCQVTHEGSTVEKTVAPTECS
heavy: QVQLVESGGGLVQPGRSLRLSCTTSGFTFGDYAMIWARQAPGKGLEWVSSISSSSSYIYYADSVKGRFTISRDNAKNSLYLQMNSLRAEDTAVYYCARERYDFWSGMDVWGKGTTVTVSSASTKGPSVFPLAPSSKSTSGGTAALGCLVKDYFPEPVTVSWNSGALTSGVHTFPAVLQSSGLYSLSSVVTVPSSSLGTQTYICNVNHKPSNTKVDKKDKTSC
modifications: C-terminal hinge cysteine disulfide-bonded to the second Fab'
notes: The preparation is heavily contaminated: 29% L2H2 dimer, 43% L2H pseudo-dimer and 25% free heavy chain; For heavy chain position 1 see the note of m2; also called F(ab')2-C4
- Kd [1]: 118 nM
- Kd [2]: 11 nM
- Kd [3]: 1.2 nM

B4: C4 Fab fragment (human anti-folate receptor alpha Fab, lambda light chain) (Fab, V domains shown)
VH: QVQLVESGGGLVQPGRSLRLSCTTSGFTFGDYAMIWARQAPGKGLEWVSSISSSSSYIYYADSVKGRFTISRDNAKNSLYLQMNSLRAEDTAVYYCARERYDFWSGMDVWGKGTTVTVSS
VL: QSALTQPASVSGSPGQSITISCTGTSSDVGSYNLVSWYQQHPGKAPKLMIYEGSKRPSGVSNRFSGSKSGNAASLTISGLQAEDEADYYCQSYDSSLSVVFGGGTKLTVLG
notes: It says only that C4 and AFRA share the heavy chain except for Q1N in AFRA, so C4 has Q at position 1; also called Fab C4
- Kd [5]: 168 nM

Other lines, results leading:

- Kd [1]: 57 nM
- Kd [2]: 26 nM
- Kd [3]: 2.5 nM
B2: AFRA F(ab')2 natural dimer (other)
light: EIVLTQSPASLAVSPGQRATITCRASESVSFLGINLIHWYQQKPGQPPKLLIYQASNKDTGVPARFSGSGSGTDFTLTINPVEANDTANYYCLQSKNFPPYTFGQGTKLEIKRTVAAPSVFIFPPSDEQLKSGTASVVCLLNNFYPREAKVQWKVDNALQSGNSQESVTEQDSKDSTYSLSSTLTLSKADYEKHKVYACEVTHQGLSSPVTKSFNRGEC
heavy: B1 heavy with Q1N
modifications: C-terminal hinge cysteine disulfide-bonded to the second Fab'
notes: F(ab')2 made by natural oxidation of Fab'; By SDS-PAGE the preparation is 80% L2H2 dimer, 16% L2H and 4% free heavy chain; For Q1N see the note of m1; also called F(ab')2-AFRA; AFRA dimer

- fold lower KD than C4 [4]: 3 fold
- Kd [5]: 43.9 nM
B3: AFRA Fab fragment (Anti Folate Receptor Alpha human Fab, kappa light chain) (Fab, V domains shown)
VH: B4 VH with Q1N
VL: EIVLTQSPASLAVSPGQRATITCRASESVSFLGINLIHWYQQKPGQPPKLLIYQASNKDTGVPARFSGSGSGTDFTLTINPVEANDTANYYCLQSKNFPPYTFGQGTKLEIKR
notes: Made in E. coli periplasm; also called AFRA monomer; Fab AFRA
